2 molecules from paper PMC5503505 (Nature structural & molecular biology, 2017) can be followed below.

B2: Orc3 (natural protein)
chain: MSDLNQSKKMNVSEFADAQRSHYTVYPSLPQSNKNDKHIPFVKLLSGKESEVNVEKRWELYHQLHSHFHDQVDHIIDNIEADLKAEISDLLYSETTQKRRCFNTIFLLGSDSTTKIELKDESSRYNVLIELTPKESPNVRMMLRRSMYKLYSAADAEEHPTIKYEDINDEDGDFTEQNNDVSYDLSLVENFKRLFGKDLAMVFNFKDVDSINFNTLDNFIILLKSAFKYDHVKISLIFNINTNLSNIEKNLRQSTIRLLKRNYHKLDVSSNKGFKYGNQIFQSFLDTVDGKLNLSDRFVEFILSKMANNTNHNLQLLTKMLDYSLMSYFFQNAFSVFIDPVNVDFLNDDYLKILSRCPTFMFFVEGLIKQHAPADEILSLLTNKNRGLEEFFVEFLVRENPINGHAKFVARFLEEELNITNFNLIELYHNLLIGKLDSYLDRWSACKEYKDRLHFEPIDTIFQELFTLDNRSGLLTQSIFPSYKSNIEDNLLSWEQVLPSLDKENYDTLSGDLDKIMAPVLGQLFKLYREANMTINIYDFYIAFRETLPKEEILNFIRKDPSNTKLLELAETPDAFDKVALILFMQAIFAFENMGLIKFQSTKSYDLVEKCVWRGI

Holding throughout (assay): cryo-EM structure
The assay “Orc3” deals with B2.
The target of another assay is T1, Orc4 (S. cerevisiae, UniProt P54791 1-529).
T1 sequence: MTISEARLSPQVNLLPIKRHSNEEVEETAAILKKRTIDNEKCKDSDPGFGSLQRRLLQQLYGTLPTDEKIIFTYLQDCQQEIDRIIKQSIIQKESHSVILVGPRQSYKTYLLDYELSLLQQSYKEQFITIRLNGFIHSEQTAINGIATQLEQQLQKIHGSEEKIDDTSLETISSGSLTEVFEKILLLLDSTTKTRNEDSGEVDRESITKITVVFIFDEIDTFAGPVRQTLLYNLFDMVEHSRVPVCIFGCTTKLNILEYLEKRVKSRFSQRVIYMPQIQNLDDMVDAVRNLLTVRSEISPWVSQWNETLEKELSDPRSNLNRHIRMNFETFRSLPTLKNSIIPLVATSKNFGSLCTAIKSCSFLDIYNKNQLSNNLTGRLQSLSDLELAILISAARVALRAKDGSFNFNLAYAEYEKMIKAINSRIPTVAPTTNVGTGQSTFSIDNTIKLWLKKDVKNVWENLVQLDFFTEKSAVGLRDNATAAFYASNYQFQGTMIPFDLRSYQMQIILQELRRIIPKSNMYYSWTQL

Another assay has as its target Mcm6 (S. cerevisiae, UniProt P53091 1-1017).
For a further assay, the target named is T2, Mcm2 (S. cerevisiae, UniProt P29469 1-868).
T2 sequence: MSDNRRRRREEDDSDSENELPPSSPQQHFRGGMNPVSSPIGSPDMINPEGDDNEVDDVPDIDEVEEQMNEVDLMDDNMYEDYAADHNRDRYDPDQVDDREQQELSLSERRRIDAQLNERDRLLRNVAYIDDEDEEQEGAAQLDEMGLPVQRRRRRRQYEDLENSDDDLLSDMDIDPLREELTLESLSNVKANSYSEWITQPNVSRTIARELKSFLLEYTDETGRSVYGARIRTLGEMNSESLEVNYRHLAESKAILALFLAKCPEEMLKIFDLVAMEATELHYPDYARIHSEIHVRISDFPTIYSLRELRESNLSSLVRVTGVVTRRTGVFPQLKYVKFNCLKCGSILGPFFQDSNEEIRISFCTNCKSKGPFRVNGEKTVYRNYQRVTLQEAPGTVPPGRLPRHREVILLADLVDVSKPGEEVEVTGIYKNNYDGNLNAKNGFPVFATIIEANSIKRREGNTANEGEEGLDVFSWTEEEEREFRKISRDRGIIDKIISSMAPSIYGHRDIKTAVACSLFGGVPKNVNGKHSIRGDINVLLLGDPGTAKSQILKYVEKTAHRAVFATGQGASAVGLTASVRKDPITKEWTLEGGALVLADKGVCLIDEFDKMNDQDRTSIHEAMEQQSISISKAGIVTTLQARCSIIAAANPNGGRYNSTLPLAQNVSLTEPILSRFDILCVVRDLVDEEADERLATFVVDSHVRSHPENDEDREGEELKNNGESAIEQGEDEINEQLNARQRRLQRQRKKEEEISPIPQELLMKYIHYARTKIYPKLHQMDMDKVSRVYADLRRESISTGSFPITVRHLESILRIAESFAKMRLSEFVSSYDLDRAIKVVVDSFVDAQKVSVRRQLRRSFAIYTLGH

The target in a further assay is T3, Orc2 (S. cerevisiae, UniProt P32833 1-620).
T3 sequence: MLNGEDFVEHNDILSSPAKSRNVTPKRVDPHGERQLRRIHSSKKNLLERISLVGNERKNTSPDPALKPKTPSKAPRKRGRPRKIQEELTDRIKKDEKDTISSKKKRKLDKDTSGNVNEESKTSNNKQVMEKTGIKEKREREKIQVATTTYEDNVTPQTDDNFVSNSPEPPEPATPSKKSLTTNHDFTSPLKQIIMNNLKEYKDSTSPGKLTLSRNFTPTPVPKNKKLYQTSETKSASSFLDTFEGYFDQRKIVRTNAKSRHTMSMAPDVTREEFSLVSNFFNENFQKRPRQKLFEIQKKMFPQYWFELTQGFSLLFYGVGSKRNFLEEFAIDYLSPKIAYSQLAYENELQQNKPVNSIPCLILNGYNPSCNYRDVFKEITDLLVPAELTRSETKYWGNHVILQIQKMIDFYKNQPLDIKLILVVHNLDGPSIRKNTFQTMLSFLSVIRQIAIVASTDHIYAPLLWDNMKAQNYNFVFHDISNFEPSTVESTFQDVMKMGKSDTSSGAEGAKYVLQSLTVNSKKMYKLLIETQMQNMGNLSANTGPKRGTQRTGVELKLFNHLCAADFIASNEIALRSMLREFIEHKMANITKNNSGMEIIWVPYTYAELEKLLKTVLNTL

Chain of Mcm6 (P53091 whole entry): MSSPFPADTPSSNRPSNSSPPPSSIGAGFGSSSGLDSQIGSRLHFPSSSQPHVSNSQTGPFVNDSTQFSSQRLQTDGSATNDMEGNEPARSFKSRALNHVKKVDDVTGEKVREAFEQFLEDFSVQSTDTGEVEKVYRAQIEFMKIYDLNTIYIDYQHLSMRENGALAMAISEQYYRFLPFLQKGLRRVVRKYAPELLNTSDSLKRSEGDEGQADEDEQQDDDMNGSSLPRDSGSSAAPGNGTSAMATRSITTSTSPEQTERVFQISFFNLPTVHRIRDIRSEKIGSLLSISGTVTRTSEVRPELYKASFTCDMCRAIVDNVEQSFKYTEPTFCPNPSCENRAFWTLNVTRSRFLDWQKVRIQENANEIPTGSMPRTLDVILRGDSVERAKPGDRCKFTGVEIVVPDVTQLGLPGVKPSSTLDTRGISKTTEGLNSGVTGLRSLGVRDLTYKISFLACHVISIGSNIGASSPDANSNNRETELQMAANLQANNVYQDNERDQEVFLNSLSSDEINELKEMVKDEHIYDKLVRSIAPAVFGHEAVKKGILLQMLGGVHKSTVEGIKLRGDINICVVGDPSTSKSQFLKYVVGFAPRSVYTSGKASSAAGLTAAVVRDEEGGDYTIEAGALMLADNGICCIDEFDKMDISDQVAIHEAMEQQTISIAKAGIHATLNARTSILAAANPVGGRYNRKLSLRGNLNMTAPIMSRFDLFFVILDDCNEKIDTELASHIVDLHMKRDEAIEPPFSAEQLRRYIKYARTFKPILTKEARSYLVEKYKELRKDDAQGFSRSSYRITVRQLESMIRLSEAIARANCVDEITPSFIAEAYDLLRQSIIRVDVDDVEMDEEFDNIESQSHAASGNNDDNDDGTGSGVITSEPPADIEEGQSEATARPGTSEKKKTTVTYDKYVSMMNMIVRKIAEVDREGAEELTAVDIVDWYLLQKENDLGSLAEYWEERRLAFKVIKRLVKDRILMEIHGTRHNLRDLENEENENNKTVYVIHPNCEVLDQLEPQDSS

B1: Orc5 (natural protein)
chain: MNVTTPEVAFREYQTNCLASYISADPDITPSNLILQGYSGTGKTYTLKKYFNANPNLHAVWLEPVELVSWKPLLQAIARTVQYKLKTLYPNIPTTDYDPLQVEEPFLLVKTLHNIFVQYESLQEKTCLFLILDGFDSLQDLDAALFNKYIKLNELLPKDSKINIKFIYTMLETSFLQRYSTHCIPTVMFPRYNVDEVSTILVMSRCGELMEDSCLRKRIIEEQITDCTDDQFQNVAANFIHLIVQAFHSYTGNDIFALNDLIDFKWPKYVSRITKENIFEPLALYKSAIKLFLSTDDNLSENGQGESAITTNRDDLENSQTYDLSIISKYLLIASYICSYLEPRYDASIFSRKTRIIQGRAAYGRRKKKEVNPRYLQPSLFAIERLLAIFQAIFPIQGKAESGSLSALREESLMKANIEVFQNLSELHTLKLIATTMNKNIDYLSPKVRWKVNVPWEIIKEISESVHFNISDYFSDIHE
On to B1, for which the binding result with Orc3, with Orc4, with Mcm6 and with Mcm2 was “binds” throughout.
Consider B2, for which, in the assay with Orc2, the binding result is listed as “binds”.
